In the test the target is T1, human TNF-alpha (hTNF-alpha) (human, UniProt P01375 77-233).
T1 construct: also called biotinylated hTNF-; [125I]TNF-
Kind of test: SPR (BIAcore), TNFrED captured on BAF225 anti-TNFrED surface, TNF-alpha injected at 1-100 nM, global 1:1 fit. The text has this:
Conditioned media from transient transfections of HEK293-EBNA cells were concentrated with Centricon 10s and the amount of TNFrED protein was quantitated with the R & D Systems ELISA for hTNF R-1. […] Conditioned medium (no TNFrED) and HBS were used as negative controls.

B1: TNFrED H34P (receptor)
chain: DSVCPQGKYIHPQNNSICCTKCPKGTYLYNDCPGPGQDTDCRECESGSFTASENHLRHCLSCSKCRKEMGQVEISSCTVDRDTVCGCRKNQYRHYWSENLFQCFNCSLCLNGTVHLSCQEKQNTVCTCHAGFFLRENECVSCSNCKKSLECTKLCLPQIEN
notes: Secreted from HEK293-EBNA cells, conditioned medium
In turn, B1 returned a Kd of 0.5 nM, an off-rate (koff) of 0.0009 s⁻¹ and a kon of 1.9e+06 M⁻¹ s⁻¹.

B2: TNFrED H34P+S57I (receptor)
chain: DSVCPQGKYIHPQNNSICCTKCPKGTYLYNDCPGPGQDTDCRECEIGSFTASENHLRHCLSCSKCRKEMGQVEISSCTVDRDTVCGCRKNQYRHYWSENLFQCFNCSLCLNGTVHLSCQEKQNTVCTCHAGFFLRENECVSCSNCKKSLECTKLCLPQIEN
notes: Secreted from HEK293-EBNA cells, conditioned medium; also called H34P + S571
As for B2, the Kd came to 0.6 nM, the koff amounted to 0.0012 s⁻¹ and the kon is 1.9e+06 M⁻¹ s⁻¹.

B3: TNFrED H34P+S57I+S87P (receptor)
chain: DSVCPQGKYIHPQNNSICCTKCPKGTYLYNDCPGPGQDTDCRECEIGSFTASENHLRHCLSCSKCRKEMGQVEISPCTVDRDTVCGCRKNQYRHYWSENLFQCFNCSLCLNGTVHLSCQEKQNTVCTCHAGFFLRENECVSCSNCKKSLECTKLCLPQIEN
notes: Secreted from HEK293-EBNA cells, conditioned medium; also called H34P + S87P + S571
For the molecule B3, the Kd turned out to be 0.6 nM, the koff came to 0.001 s⁻¹ and the kon amounted to 1.8e+06 M⁻¹ s⁻¹.

B4: TNFrED S87P (receptor)
chain: DSVCPQGKYIHPQNNSICCTKCHKGTYLYNDCPGPGQDTDCRECESGSFTASENHLRHCLSCSKCRKEMGQVEISPCTVDRDTVCGCRKNQYRHYWSENLFQCFNCSLCLNGTVHLSCQEKQNTVCTCHAGFFLRENECVSCSNCKKSLECTKLCLPQIEN
notes: as for B1
B4 came in with a Kd of 0.6 nM, a koff of 0.0011 s⁻¹ and an association rate constant (kon) of 2e+06 M⁻¹ s⁻¹.

B5: TNFrED H34P+S87P (receptor)
chain: DSVCPQGKYIHPQNNSICCTKCPKGTYLYNDCPGPGQDTDCRECESGSFTASENHLRHCLSCSKCRKEMGQVEISPCTVDRDTVCGCRKNQYRHYWSENLFQCFNCSLCLNGTVHLSCQEKQNTVCTCHAGFFLRENECVSCSNCKKSLECTKLCLPQIEN
notes: as for B1
For B5, the affinity, expressed as Kd, was 0.6 nM; the koff was determined as 0.0012 s⁻¹; the on-rate constant (kon) was determined as 1.9e+06 M⁻¹ s⁻¹.

B6: TNFrED S57I (receptor)
chain: DSVCPQGKYIHPQNNSICCTKCHKGTYLYNDCPGPGQDTDCRECEIGSFTASENHLRHCLSCSKCRKEMGQVEISSCTVDRDTVCGCRKNQYRHYWSENLFQCFNCSLCLNGTVHLSCQEKQNTVCTCHAGFFLRENECVSCSNCKKSLECTKLCLPQIEN
notes: Secreted from HEK293-EBNA cells, conditioned medium; also called S571
Molecule B6 gave a Kd of 0.5 nM, a koff of 0.0009 s⁻¹ and a kon of 1.9e+06 M⁻¹ s⁻¹.

One may read the Kd as the constant that tells how readily two partners part at equilibrium. The low end stands for a tighter complex, the high end for a looser complex. Broadly, the koff is the first-order rate constant of dissociation. A lower koff goes with a long-lived complex. One may read the kon as a measure of how fast the partners come together. The low end stands for slow association, the high end for fast association.

The record behind these values is patent US20050074840A1 (published 2005).
